Experiment: soluble on expression in E. coli; label from the status in PepcDB or PDB records

For “MGSDKIHHHHHHMIELERVCKDYHTRQGMRRVLNRIDLRVKQGEKVGILGRNGAGKSTLIRMISGAELPTEGRIRRSMNVSWPLAFGGAFQGSLTGMDNLRFICRVYGADPKAAEPFVQEFSELGYYLREPVKSYSAGMRARLAFAISMAIEFDCFLIDEIVAVGDSRFHAKCHHELFEQRKDRALIIVSHDASYIRQHCDRASVLIEGKLHSFDSVEDAYTFYQESTA”, which “soluble on expression in E. coli” value is on record?
The value was “not soluble”.

For “MFDGEDLKKIFAMDGFLRNIEFEVSYISEGSIEIKVPLKENLMRVGDIMNGGAIMAISDAIGGLTVMTYGSVINQVTVNFNTEFIRPIGTGPVIFRSSMVRIGKNIAYVDVAAIDGNGQLCSKSMGTYYIYR”, which “soluble on expression in E. coli” value is on record?
The value was “soluble”.

With “MGSDKIHHHHHHMTENKNEKLGWINGHWGVFKDLKVPINDRGLNFADGIFETILILNGIPQLLDEHLNRWEKSASILEMNSPPSKEWLISLVEDGINQAQLKNINGVIRINWTRGESEQRGIDISKTSLHSFWLEIDSYQPNFESISTIISQTERRNSFSRLSSCKTFSYNQGIQARIEAKNLGFNDALLLNSQGEICCATTANILVKRENNWLTPPSNSGCLPGIMRQRGIELNIIKEALIEATPKDNDEWFLINSLSCRPIQKINKKELKISTNPKEFWLSLLKI” as the sequence, how does the “soluble on expression in E. coli” value read?
Its value is “not soluble”.

Which “soluble on expression in E. coli” value does the source give for “MGPAPRILELFYDVLSPYSWLGFEVLCRYQHLWNIKLQLRPTLIAGIMKDSGNQPPAMVPRKGQYIFKEIPLLKQFFQVPLNIPKDFFGETVKKGSINAMRFLTTVSMEQPEMLEKVSREIWMRVWSRDEDITEYQSILAAAVKAGMSTAQAQHFLEKISTQQVKNKLIENTDAACKYGAFGLPTTVAHVDGKTYMLFGSDRLELLAYLLGEKWMGPVPPTANARL” here?
Its value is “soluble”.

With “MGSDKIHHHHHHMKTGRNDPCPCGSAKKYKNCCMDAISKQNSALLDDISQVTAMNPNLTHDELDLVLQQKAFAQNNRPIADFCGLSPAQMANWLYAPFNELNCVAISPPDDLSSSPVMRYLEVILDEAMAQNGSFKATSKGNLPTKLVKQASGLLPEFAVAQFSTNISISEYAGSNEDKFNALHYTRILAELSGIIYRKSGSYHVKKAAQKQYQSQGLTAFFLPMLEAAITKYNWGYLDSWEHDAVLSTFWLFMLWRLQSHASVDELIDEVATAFPDLLHQFPADKYRTPQAQLGMGIDSRFLKRFLQFWGFITLDPKRLFAEPREPRKVQIQPLLTQTFKFTI” as the sequence, how does the “soluble on expression in E. coli” value read?
Its value is “not soluble”.

For “MEYQLREIDESEKEITQQRKKNSVTTKNFDNLSNSNSQITEMTNEQGVIPLREKDLTINVGDNRNLKVEEFMTNFISNVFENKNALFLYCKYVLLFYGKELLNENNVESLNFEIIKGGITNILVKVEDNIHQNKYLIRLYGPKTSEIINREREKLISNILCDKNISKKIYVFFPNGRIEEFKDGYALSREDIKNKDFQKEIAENLRILHDIQLDDTIYKKLQALQNIQGNRSSFLWSTLWKYFNTLKEERQKKYSFNPKAYILKLIDFDMLESIITEIQELCCKKNSPVVLCHCDLLSSNIIKTEGSSISFIDFEYSCPMERAYDIANHFNEYAGFNCEWDLTPNRSEEYHFIKHYLKTDDEQLINQLIDEIQPFYVCSHIVWGLWALLQGLHSVIDFDFINYGMTRLTAAFSVKFRSKLEKN”, which “soluble on expression in E. coli” value is on record?
Its value is “not soluble”.

With “LKSLKDVTDHKKVNANDEDYKYIDMWKRLYQGHYAEWHNLNYEHNGNPVNRRQLSMNLPKVTAKYMSKLLFNEKVKINIDDKAAEEFVLNVLKTNGFTKNMERYIEYGEAMGGFVIKVYHDGNKNVKISFATADCMYPLSNDSENVDECVIANSFHKNNKYYKLLEWNEWKGKEEKVYTITTELYQSDNPDELGGEVSLKLLFNDIEPVVPLPPLTRPTFIYIKPNIANNKNLTSPLGISIYANALDTLKTLDLMFDSYYQEFKLGKKKVLVPSSFVKTAVNLDGSTTQYFDSTDEAFFLYQGDQDADGKSVKDISVEIRSTEFIESINAMLRIYAMQVGLSAGTFTFDENGLKTATEVVSEKSETYQTKNSHSQLIEQGIKEMIVSILEVGKFIEAYSGDVVELDTITVDFDDSIAQDEDTTINRYTTAKNQGMIPLKIALQRAWNITDAEAEEWKEEIEKDARAEIPG” as the sequence, how does the “soluble on expression in E. coli” value read?
The value was “not soluble”.

— the DeepSol protein solubility set
